Measured values as given in US11419921B2, “Methods of treating neurological disorders” (EnClear Therapies, Inc., priority 2018, dated 2022).

Assays:
[1] = system: (GR)10; experiment: (GR)10 digestion with immobilized proteases in human cerebrospinal fluid (CSF); type: biochemical; details: immobilized enzyme
Procedure: (§1) Protease solutions were prepared at 2 mg/mL in sterile PBS with calcium, magnesium and 200 μL ([…]) were applied to 100 μL of pre-washed NHS-activated agarose resin in 0.8 mL centrifuge columns. Reactions were left 1.5 hour at room temperature with end-to-end mixing, after which resins were washed with 12 resin volumes of PBS. Unreacted sites were blocked with 500 μL of 1M ethanolamine for 15 minutes at room temperature and resins were further washed with 24 resin volumes. Resins were stored at 4 degrees in 500 μL of PBS containing 0.05% sodium azide as preservative.
200 μM of (GR)10 were diluted in human cerebrospinal fluid (CSF) and 400 μL were applied to each immobilized proteases. The reaction was incubated 5 minutes at room temperature with end-to-end mixing. Columns were spun down 1 minute at 1,000 Xg to recover digested GR dipeptides. Columns were washed with 12 resin volumes of PBS. The procedure was repeated with 60 minutes digestion time. 100 μL of each samples were transferred to a clean tube, flash-frozen and subsequently used for LC/MS quantification of GR repeats of different lengths. The remaining 300 μL of each samples were flash-frozen and used to assess neuron toxicity.
(GR)10 was digested with exemplary immobilized enzymes as described above in the subsection titled “(GR)10 digestion with immobilized proteases in CSF” of Example 3. Clostripain experiments were conducted with and without DTT activation (no DTT during digestion). The results obtained after 5 and 60 minutes of reaction time are presented in Table 25 and shown in FIG. 5 (commercial and in-house immobilized trypsin), FIG. 6 (immobilized elastase, FIG. 7A (immobilized clostripain without DTT) and FIG. 7 (immobilized clostripain with 2.5 mM DTT).

[2] = system: (GR)10; experiment: (GR)10 digestion with immobilized proteases (NHS-activated agarose resin) in PBS; type: biochemical; details: normalized
Procedure: as §1
110 μL of 50 μM (GR)10 dipeptide repeats prepared in PBS were added to each immobilized protease and incubated 5 minutes at room temperature with end-to-end mixing. Columns were spun down 1 minute at 1,000 Xg to recover digested GR dipeptides. Columns were washed with 110 μL of PBS to increase (GR)10 recovery. This procedure was repeated with 60 minutes digestion time. 100 μL of each samples were transferred to a new tube and 5 μL of 10% TFA followed by 300 μL of Dilution Solution were added. The reaction mixtures were analyzed by LC/MS to determine the concentration of GR repeats of different lengths.

[3] = resin wash from 60 min reaction

B1: Clostripain: sulfhydryl protease cleaving at the C-terminus of arginine residues; in Table 23 also immobilized on agarose resin (protein)
chain: NKNQKVTIMYYCDADNNLEGSLLNDIEEMKTGYKDSPNLNLIALVDRSPRYSSDEKVLGEDFSDTRLYKIEHNKANRLDGKNEFPEISTTSKYEANMGDPEVLKKFIDYCKSNYEADKYVLIMANHGGGAREKSNPRLNRAICWDDSNLDKNGEADCLYMGEISDHLTEKQSVDLLAFDACLMGTAEVAYQYRPGNGGFSADTLVASSPVVWGPGFKYDKIFDRIKAGGGTNNEDDLTLGGKEQNFDPATITNEQLGALFVEEQRDSTHANGRYDQHLSFYDLKKAESVKRAIDNLAVNLSNENKKSEIEKLRGSGIHTDLMHYFDEYSEGEWVEYPYFDVYDLCEKINKSENFSSKTKDLASNAMNKLNEMIVYSFGDPSNNFKEGKNGLSIFLPNGDKKYSTYYTSTKIPHWTMQSWYNSIDTVKYGLNPYGKLSWCKDGQDPEINKVGNWFELLDSWFDKTNDVTGGVNHYQW
58.4 µM: (GR)8 (normalized uM) ([1]; 60 min reaction)
106.2 µM: (GR)1 (normalized uM) ([1]; 60 min reaction)
155.8 µM: (GR)1 [2, 3]
296.5 µM: (GR)1 ([2]; Immobilized - 5 min reaction)
0.0 µM: (GR)3 (normalized uM) ([1]; 5 min reaction) | (GR)4 (normalized uM) ([1]; 5 min reaction) | (GR)6 (normalized uM) ([1]; 5 min reaction) | (GR)8 (normalized uM) ([1]; 5 min reaction) | (GR)2 ([2]; Immobilized - 5 min reaction) | (GR)3 ([2]; Immobilized - 5 min reaction) | (GR)4 ([2]; Immobilized - 5 min reaction) | (GR)5 ([2]; Immobilized - 5 min reaction) | (GR)6 ([2]; Immobilized - 5 min reaction) | (GR)8 ([2]; Immobilized - 5 min reaction) | (GR)10 ([2]; Immobilized - 5 min reaction) | (GR)2 ([2]; immobilized - 60 min reaction) | (GR)3 ([2]; immobilized - 60 min reaction) | (GR)4 ([2]; immobilized - 60 min reaction) | (GR)5 ([2]; immobilized - 60 min reaction) | (GR)6 ([2]; immobilized - 60 min reaction) | (GR)8 ([2]; immobilized - 60 min reaction) | (GR)10 ([2]; immobilized - 60 min reaction) | (GR)2 ([2]; resin wash from 5 min reaction) | (GR)3 ([2]; resin wash from 5 min reaction) | (GR)4 ([2]; resin wash from 5 min reaction) | (GR)5 ([2]; resin wash from 5 min reaction) | (GR)6 ([2]; resin wash from 5 min reaction) | (GR)8 ([2]; resin wash from 5 min reaction) | (GR)10 ([2]; resin wash from 5 min reaction) | (GR)2 [2, 3] | (GR)3 [2, 3] | (GR)4 [2, 3] | (GR)5 [2, 3] | (GR)6 [2, 3] | (GR)8 [2, 3] | (GR)10 [2, 3]
72.3 µM: (GR)3 (normalized uM) ([1]; 60 min reaction)
84.7 µM: (GR)4 (normalized uM) ([1]; 60 min reaction)
140.2 µM: (GR)1 ([2]; resin wash from 5 min reaction)
395 µM: (GR)10 (normalized uM) ([1]; 5 min reaction)
85.5 µM: (GR)5 (normalized uM) ([1]; 60 min reaction)
11.2 µM: (GR)1 (normalized uM) ([1]; 5 min reaction)
99.2 µM: (GR)2 (normalized uM) ([1]; 60 min reaction)
8.5 µM: (GR)5 (normalized uM) ([1]; 5 min reaction)
87 µM: (GR)6 (normalized uM) ([1]; 60 min reaction)
10.0 µM: (GR)2 (normalized uM) ([1]; 5 min reaction)
305.9 µM: (GR)1 ([2]; immobilized - 60 min reaction)
0 µM: (GR)10 (normalized uM) ([1]; 60 min reaction)

B2: Trypsin: protease cleaving at the carboxyl side of lysine or arginine; in Table 21 also immobilized in-house on NHS-activated agarose resin (protein, UniProt P00760 24-246, looked up)
Serine protease 1: IVGGYTCGANTVPYQVSLNSGYHFCGGSLINSQWVVSAAHCYKSGIQVRLGEDNINVVEGNEQFISASKSIVHPSYNSNTLNNDIMLIKLKSAASLNSRVASISLPTSCASAGTQCLISGWGNTKSSGTSYPDVLKCLKAPILSDSSCKSAYPGQITSNMFCAGYLEGGKDSCQGDSGGPVVCSGKLQGIVSWGSGCAQKNKPGVYTKVCNYVSWIKQTIASN
140.2 µM: (GR)1 ([2]; resin wash from 5 min reaction)
6.6 µM: (GR)10 ([2]; resin wash from 5 min reaction)
0.0 µM: (GR)3 (normalized uM) ([1]; 5 min reaction) | (GR)4 (normalized uM) ([1]; 5 min reaction) | (GR)5 (normalized uM) ([1]; 5 min reaction) | (GR)6 (normalized uM) ([1]; 5 min reaction) | (GR)8 (normalized uM) ([1]; 5 min reaction) | (GR)10 (normalized uM) ([1]; 5 min reaction) | (GR)2 (normalized uM) ([1]; 60 min reaction) | (GR)3 (normalized uM) ([1]; 60 min reaction) | (GR)4 (normalized uM) ([1]; 60 min reaction) | (GR)5 (normalized uM) ([1]; 60 min reaction) | (GR)6 (normalized uM) ([1]; 60 min reaction) | (GR)8 (normalized uM) ([1]; 60 min reaction) | (GR)10 (normalized uM) ([1]; 60 min reaction) | (GR)2 ([2]; Immobilized - 5 min reaction) | (GR)3 ([2]; Immobilized - 5 min reaction) | (GR)4 ([2]; Immobilized - 5 min reaction) | (GR)5 ([2]; Immobilized - 5 min reaction) | (GR)6 ([2]; Immobilized - 5 min reaction) | (GR)8 ([2]; Immobilized - 5 min reaction) | (GR)10 ([2]; Immobilized - 5 min reaction) | (GR)2 ([2]; immobilized - 60 min reaction) | (GR)3 ([2]; immobilized - 60 min reaction) | (GR)4 ([2]; immobilized - 60 min reaction) | (GR)5 ([2]; immobilized - 60 min reaction) | (GR)6 ([2]; immobilized - 60 min reaction) | (GR)8 ([2]; immobilized - 60 min reaction) | (GR)10 ([2]; immobilized - 60 min reaction) | (GR)2 ([2]; resin wash from 5 min reaction) | (GR)3 ([2]; resin wash from 5 min reaction) | (GR)4 ([2]; resin wash from 5 min reaction) | (GR)5 ([2]; resin wash from 5 min reaction) | (GR)6 ([2]; resin wash from 5 min reaction) | (GR)8 ([2]; resin wash from 5 min reaction) | (GR)2 [2, 3] | (GR)3 [2, 3] | (GR)4 [2, 3] | (GR)5 [2, 3] | (GR)6 [2, 3] | (GR)8 [2, 3] | (GR)10 [2, 3]
1153.4 µM: (GR)1 (normalized uM) ([1]; 5 min reaction)
308.8 µM: (GR)1 ([2]; Immobilized - 5 min reaction)
321.8 µM: (GR)1 ([2]; immobilized - 60 min reaction)
1182.3 µM: (GR)1 (normalized uM) ([1]; 60 min reaction)
144.6 µM: (GR)1 [2, 3]
9.0 µM: (GR)2 (normalized uM) ([1]; 5 min reaction)
